Measurements: the supplement of paper PMC10567573

B1: ESRRG (parent)
chain: YSCPATNECEITKRRRKSCQACRF
B2: RIPK4 (parent)
chain: AAWQGHLPIVKLLAKQPGVSVNAQ

Variants of: B1
Experiment: protein stability index of a GFP-peptide fusion (GPS, HEK-293T) (PSI 1-6); higher = more stable
Conditions: c terminus: a fixed tail appended
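Note: lentivirally expressed fusions sorted by FACS into six bins by GFP to DsRed ratio, PSI derived from sequencing read proportions per bin multiplied by bin number.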

Protein stability index: each site, then its substitutions
E8: C 3.12; Q 3.52; W 1.96; D 2.92
S2: W 2.33
Y1: A 4.13; M 4.2; Q 4.19
C3: S 3.56; W 2.83
C19: P 3.35; T 3.85; Q 3.78
R23: F 2.33
R16: I 3.31; H 3.8
R15: A 3.33; D 4.01
Q20: G 3.53; L 2.53; W 2.21
S18: V 3.08; G 2.74
K17: P 2.9; C 4.5
F24: P 3.51
A5: Q 3.26
I11: T 3.69; C 3.83
A21: K 3.63; D 3.49; T 3.47; E 3.43
C22: Q 3.67; S 3.9; P 3.86
C9: K 3.91; Q 3.47; P 3.5
R14: G 3.7; L 2.81; Y 3.17

Variants of: B2
Experiment: as above
Conditions: c terminus: a fixed tail appended

Protein stability index of substitutions, site by site:
V21: F 2.23; A 2.62; Y 1.89; P 2.3; R 2.75; M 1.95; C 1.54; S 2.81; L 2.51; D 3.05; N 2.99; E 2.92; T 2.18; Q 2.3; G 1.6; H 2.45; K 2.8; I 2.43
N22: W 1.36; C 1.89; S 3.35; R 1.98; Y 1.39; I 2.22; T 2.58; Q 1.98; G 1.98; M 2.61; V 3.92; P 2.19; L 2.06; K 2.29; F 1.55; H 2.37; D 2.48; A 2.15
A14: E 2.56; T 2.42; I 1.67; Y 2.09; Q 2.14; M 2.07; C 1.33; K 3.17; S 2.72; V 1.87; G 2.72; F 1.57; P 3.28; H 2.13; D 3.75; W 1.33; R 2.5; N 3.07
I9: E 2.55; T 3.02; V 2.64; P 3.45; Q 2.78; S 2.83; G 2.14; N 1.79; C 3.1; H 2.47; A 3.49; Y 2.45; F 2.36; W 2.63
V19: R 3.3; W 1.61; T 2.46; M 2.3; Y 1.75; C 2.66; S 3.22; L 2.04; H 2.65; P 3.08; N 2.61; F 1.7; K 2.73; D 3.35; G 1.85
A23: M 1.74; D 2.65; F 1.41; L 2.01; S 2.52; N 2.92; V 2.19; Y 1.63; T 2.4; C 2.89; I 1.72; H 1.79; Q 3.54; K 2.6; R 2.64; P 2.03; G 2.54; E 2.92
Q24: G 1.93; V 3.06; N 2.39; H 1.93; S 2.69; F 2.07; D 3.29; K 2.78; R 3.16; P 1.89; W 1.58; T 1.93; C 2.19; M 1.86; A 2.08; Y 1.5; E 3.17; L 2.83; I 1.61
G18: T 2.54; R 1.69; L 2.07; Y 2.08; W 1.36; A 2.67; C 1.72; D 3.03; Q 2.53; H 2.55; F 1.51; K 2.46; V 1.92; P 2.28; N 2.07; S 2.54; I 2.01; M 1.61
L7: Y 2.05; W 1.81; R 5.04; T 2.29; S 2.8; V 2.65
P8: C 3.63; N 1.78; Q 1.85; A 1.63; D 2.25; F 3.42; H 2.08; G 1.8; S 1.78; K 1.07
P17: H 1.82; Y 3.38; G 2.22; F 1.53; E 3.58; K 2.45; M 2.5; D 2.15; S 2.46; T 1.83; W 2.91; N 2.54; C 1.92; A 1.51; Q 2.37; L 2.58
S20: L 1.76; C 2.88; Y 1.66; W 2.83; V 1.82; M 2.29; R 2.97; P 2.05; K 1.96; A 2.3; D 2.55; Q 2.35; G 2.63; H 1.97; F 1.64; I 2.33; E 2.79; T 2.4
K15: P 1.28; C 1.67; D 3.15; R 2.06; L 1.82; M 2.11; W 2.04; G 2.58; T 2.88; Q 1.81; I 2.82; F 2.26; H 2.43; E 2.73; A 2.56; N 3.56; S 2.16
Q16: M 2.22; L 2; I 1.42; A 2.54; R 2.26; V 2.14; S 2.56; T 2.5; E 3.78; W 1.55; K 2.77; N 2.95; H 2.97; P 2.27; D 3.25; G 2.93; C 2; Y 1.97
L12: P 2.71; I 2.4; M 1.88; R 3.56; C 2.75; G 3.67; S 3.75; W 1.33; Y 3.14; E 4.1; Q 3.02; A 3.04; T 3.25; V 2.35; D 4.08; F 2.45; H 3.33; N 3.59
K11: N 2.4; P 3.07; R 1.72; T 2.1; M 2.13; C 3.38; S 1.58; G 3; Q 2.35; E 3.62; H 2.15; I 1.4; V 1.84; Y 1.94; A 1.76
V10: M 2.64; P 2.75; Y 3.72; H 2.34; A 2.33; G 2.36; C 2.38; N 2.1; L 1.61; Q 2.56; R 2.37; E 3.71; W 3.69; S 2.72; F 2.16; I 1.92; D 2.74; K 2.23; T 2.78
L13: V 2.88; F 2.39; H 2.5; P 3.55; W 3.24; Y 2.94; R 3.09; D 3.82; E 4.25; S 2.85; T 2.16; A 2.9; N 3.81; C 2.86; Q 4.64; K 2.86; I 2.82
